# In patent US20180193456A1 (HENLIUS BIOTECH, published 2018):
# T1: human VEGFR3-Fc (R&D Systems) (human, UniProt P35916 25-776)
# T1 construct: Bought; not shown: Fc
# T1 sequence (looked up): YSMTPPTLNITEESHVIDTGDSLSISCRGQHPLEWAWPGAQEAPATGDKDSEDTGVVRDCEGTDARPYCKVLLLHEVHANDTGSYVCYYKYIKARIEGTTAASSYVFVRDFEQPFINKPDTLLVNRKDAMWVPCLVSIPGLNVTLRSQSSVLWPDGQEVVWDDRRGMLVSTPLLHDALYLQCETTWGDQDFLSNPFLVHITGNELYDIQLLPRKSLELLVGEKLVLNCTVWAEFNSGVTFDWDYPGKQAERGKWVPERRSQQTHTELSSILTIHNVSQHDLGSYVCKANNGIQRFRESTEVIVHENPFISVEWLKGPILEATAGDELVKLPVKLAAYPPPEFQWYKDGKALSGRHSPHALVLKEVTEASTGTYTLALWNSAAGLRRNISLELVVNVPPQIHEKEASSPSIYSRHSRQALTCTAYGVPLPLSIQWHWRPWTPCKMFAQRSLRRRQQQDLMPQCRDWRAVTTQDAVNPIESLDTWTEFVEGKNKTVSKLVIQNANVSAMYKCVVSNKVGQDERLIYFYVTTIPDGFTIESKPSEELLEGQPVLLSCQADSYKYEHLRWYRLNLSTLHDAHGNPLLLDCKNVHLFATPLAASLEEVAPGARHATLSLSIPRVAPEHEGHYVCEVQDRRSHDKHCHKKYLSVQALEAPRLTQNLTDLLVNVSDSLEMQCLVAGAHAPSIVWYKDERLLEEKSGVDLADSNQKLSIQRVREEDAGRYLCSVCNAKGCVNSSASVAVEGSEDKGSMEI
# B1: 1121B (antibody, V domains shown)
# VH: EVQLVQSGGGLVKPGGSLRLSCAASGFTFSSYSMNWVRQAPGKGLEWVSSISSSSSYIYYADSVKGRFTISRDNAKNSLYLQMNSLRAEDTAVYYCARVTDAFDIWGQGTMVTVSS
# VL: EIVMTQSPATLSLSPGERATLSCRASQSVSSYLAWYQQKPGQAPRLLIYDSSNRATGIPARFSGSGSGTDFTLTISSLEPEDFATYYCLQHNTFPPTFGQGTKVEIKR
# notes: Anti-VEGFR2 antibody of US 2009/0306348, positive control; The entries are called variable domains but run into the start of the constant domains
# B2: 1121N (antibody, V domains shown)
# VH: B1 VH
# VL: DIQMTQSPSSVSASIGDRVTITCRASQGIDNWLGWYQQKPGKAPKLLIYDASNLDTGVPSRFSGSGSGTYFTLTISSLQAEDFAVYFCQQAKAFPPTFGGGTKVDIKG
# notes: Anti-VEGFR2 antibody of U.S. Pat. No. 7,498,414, positive control; Entries run into the start of the constant domains
# Columns and labels:
# [1] = target: T2, VEGFR2 (UniProt P35968 20-764, limits assumed); test: SPR; antigen construct and format not stated
# T2 construct: The SPR paragraphs name neither antigen construct nor format
# T2 sequence (P35968 20-764 limits assumed): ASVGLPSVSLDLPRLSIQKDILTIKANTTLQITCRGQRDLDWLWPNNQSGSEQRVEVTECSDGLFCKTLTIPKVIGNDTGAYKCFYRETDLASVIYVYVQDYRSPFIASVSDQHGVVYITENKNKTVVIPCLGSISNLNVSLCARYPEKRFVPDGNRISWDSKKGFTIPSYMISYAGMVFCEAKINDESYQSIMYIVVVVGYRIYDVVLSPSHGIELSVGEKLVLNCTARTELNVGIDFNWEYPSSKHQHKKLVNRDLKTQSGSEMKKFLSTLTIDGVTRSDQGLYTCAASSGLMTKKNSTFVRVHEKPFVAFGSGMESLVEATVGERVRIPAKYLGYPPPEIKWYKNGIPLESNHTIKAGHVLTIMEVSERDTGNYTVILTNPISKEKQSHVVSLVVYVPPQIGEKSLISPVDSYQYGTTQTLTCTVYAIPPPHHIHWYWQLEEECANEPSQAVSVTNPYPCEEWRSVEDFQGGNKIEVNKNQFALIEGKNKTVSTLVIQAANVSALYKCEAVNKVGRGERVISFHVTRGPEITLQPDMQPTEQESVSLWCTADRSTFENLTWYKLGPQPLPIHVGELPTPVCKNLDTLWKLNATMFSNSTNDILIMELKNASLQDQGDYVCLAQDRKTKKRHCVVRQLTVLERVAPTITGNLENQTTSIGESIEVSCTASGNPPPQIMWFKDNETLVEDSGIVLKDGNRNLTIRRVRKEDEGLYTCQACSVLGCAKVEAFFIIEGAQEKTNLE
# [2] = target: T3, VEGFR2-Fc (UniProt P35968 20-764, limits assumed); test: ELISA, VEGFR2-Fc coated, anti-human kappa-HRP, OD450
# T3 construct: also called biotinylated VEGFR2-Fc; not shown: Fc
# T3 sequence (P35968 20-764 limits assumed): as above
# [3] = target: T4, Mouse VEGFR2-Fc (mouse, UniProt P35918 20-762, limits assumed); test: ELISA, mouse VEGFR2-Fc coated, anti-human kappa-HRP, A450
# T4 construct: not shown: Fc
# T4 sequence (P35918 20-762 limits assumed): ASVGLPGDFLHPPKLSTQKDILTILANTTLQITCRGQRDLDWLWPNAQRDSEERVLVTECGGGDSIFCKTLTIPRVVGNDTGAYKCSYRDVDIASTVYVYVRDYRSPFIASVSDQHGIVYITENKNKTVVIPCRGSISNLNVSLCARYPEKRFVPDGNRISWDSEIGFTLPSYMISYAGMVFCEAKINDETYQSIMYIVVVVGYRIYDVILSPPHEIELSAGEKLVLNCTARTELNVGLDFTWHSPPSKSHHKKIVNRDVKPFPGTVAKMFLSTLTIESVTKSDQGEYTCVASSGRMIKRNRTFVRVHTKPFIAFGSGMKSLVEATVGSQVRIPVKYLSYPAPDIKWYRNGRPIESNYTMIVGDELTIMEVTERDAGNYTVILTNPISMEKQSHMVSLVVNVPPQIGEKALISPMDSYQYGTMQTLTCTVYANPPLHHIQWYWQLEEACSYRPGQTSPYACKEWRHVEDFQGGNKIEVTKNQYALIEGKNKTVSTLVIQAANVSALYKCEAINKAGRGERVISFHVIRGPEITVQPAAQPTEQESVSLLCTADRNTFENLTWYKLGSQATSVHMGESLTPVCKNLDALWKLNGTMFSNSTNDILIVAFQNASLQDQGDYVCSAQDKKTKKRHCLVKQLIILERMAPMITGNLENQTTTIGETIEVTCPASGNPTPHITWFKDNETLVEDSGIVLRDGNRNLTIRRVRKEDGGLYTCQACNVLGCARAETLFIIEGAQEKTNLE
# [4] = target: T5, VEGFR2-AP (UniProt P35968 20-764); test: ELISA, antibody captured with anti-Fc, VEGFR2-AP added (axis printed OD450)
# T5 construct: also called AP-conjugated VEGFR2; AP-conjugated VEGFR; not shown: alkaline phosphatase (AP)
# T5 sequence (P35968 20-764): as the sequence (P35968 20-764 limits assumed) above
# [5] = target: T5, VEGFR2-AP; test: ELISA, antibody captured with anti-Fd, VEGFR2-AP added (axis printed OD450)
# [6] = target: T6, VEGFR2-D5-7-AP fusion protein (UniProt P35968 421-764); test: ELISA: antibody captured with sheep anti-human Fd, VEGFR2-D5-7-AP added, pNPP, A405
# T6 construct: domain: domains 5-7; also called domains 5-7 of VEGFR2; not shown: alkaline phosphatase (AP) fusion partner
# T6 sequence (P35968 421-764): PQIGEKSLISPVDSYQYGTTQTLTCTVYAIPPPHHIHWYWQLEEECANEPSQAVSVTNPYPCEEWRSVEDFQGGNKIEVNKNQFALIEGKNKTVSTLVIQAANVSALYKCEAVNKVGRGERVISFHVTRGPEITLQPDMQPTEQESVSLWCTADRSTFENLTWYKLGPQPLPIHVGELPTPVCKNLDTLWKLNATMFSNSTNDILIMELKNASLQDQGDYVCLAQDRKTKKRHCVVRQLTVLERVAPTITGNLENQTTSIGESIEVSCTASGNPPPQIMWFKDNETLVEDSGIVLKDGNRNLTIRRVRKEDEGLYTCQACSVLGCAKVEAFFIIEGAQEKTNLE
# [7] = target: T5, VEGFR2-AP; test: competition ELISA: antibody pre-incubated with VEGFR2-AP, mixture added to VEGF-coated wells, A405; blocked ligand: VEGF
# Experimental: Each antibody:antigen mixture was added to VEGF-coated wells of a microtiter dish. Following an incubation and wash, pNPP was added to the wells and incubated for 30 minutes. AP activity was measured by monitoring the increase in absorbance at 405 nm.
# [8] = target: T7, recombinant human VEGFR1-Fc fusion protein (R&D Systems) (human, UniProt P17948-2 27-687, limits assumed); test: ELISA, human VEGFR1-Fc coated, goat anti-human F(ab)'2-HRP, OD450
# T7 construct: Bought; not shown: Fc
# T7 sequence (P17948 other isoform, or with tags, fused parts or gaps limits assumed): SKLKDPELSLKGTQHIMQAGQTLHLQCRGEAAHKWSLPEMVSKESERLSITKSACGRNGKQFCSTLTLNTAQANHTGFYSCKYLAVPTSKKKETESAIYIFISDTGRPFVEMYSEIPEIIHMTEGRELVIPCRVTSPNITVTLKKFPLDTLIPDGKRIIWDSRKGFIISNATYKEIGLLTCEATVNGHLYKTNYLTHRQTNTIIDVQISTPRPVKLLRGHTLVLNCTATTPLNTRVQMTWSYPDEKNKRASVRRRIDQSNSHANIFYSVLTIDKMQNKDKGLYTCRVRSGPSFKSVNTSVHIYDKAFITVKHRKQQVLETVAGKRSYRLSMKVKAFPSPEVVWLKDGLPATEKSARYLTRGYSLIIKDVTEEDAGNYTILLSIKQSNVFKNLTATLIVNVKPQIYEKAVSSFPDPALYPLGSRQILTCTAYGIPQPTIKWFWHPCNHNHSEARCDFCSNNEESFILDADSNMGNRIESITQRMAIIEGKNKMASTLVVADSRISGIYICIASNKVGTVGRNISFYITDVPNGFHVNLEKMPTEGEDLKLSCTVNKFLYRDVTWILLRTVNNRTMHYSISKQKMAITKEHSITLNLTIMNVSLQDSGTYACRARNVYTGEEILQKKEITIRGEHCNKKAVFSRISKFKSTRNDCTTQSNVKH
# [9] = target: T1, human VEGFR3-Fc (R&D Systems); test: ELISA, human VEGFR3-Fc coated, goat anti-human F(ab)'2-HRP, OD450
# Experimental: To detect binding of antibody to the antibodies to the immobilized VEGFR3-Fc, either goat anti-human F(ab)′₂-HRP or goat anti-mouse F(ab)′₂-HRP was added to each well. TMB was added to the wells, and following incubation at room temperature for 15 minutes, the reactions were stopped, and HRP activity was measured by monitoring the increase in absorbance at 450 nm.
Binder,Kd [1] [nM],koff [1] [s⁻¹],kon [1] [M⁻¹ s⁻¹],EC50 (read off the curve) [2] [µg/mL],binding result [3],EC50 (read off the curve) [4] [µg/mL],EC50 (read off the curve) [5] [µg/mL],binding result [6],IC50 (read off the curve) [7] [µg/mL],binding result [8],EC50 (read off the curve) [9] [µg/mL]
B1,1.28,0.000962,752000,~0.5,no binding (tested: 500 µg/mL),~0.3,~0.6,no binding (tested: 3 µg/mL),~0.05,,
B2,,,,,no binding (tested: 500 µg/mL),,,,,no binding (tested: 20 µg/mL),~1
